# Measurements reported in patent US20050100951A1.
# Experiments:
# Ferritin = assay: FITC-trypsin on ferritin-loaded hydrogel microspots (negative control); CCD camera
# α-2-macroglobulin = assay: FITC-trypsin on α-2-macroglobulin-loaded hydrogel microspots; CCD camera
# [1] = test system: T1, insulin receptor fragment (Peptide No. 1, phosphorylated)
# T1 sequence: TRNIXQTNYYRK
Flourescence Intensity (au) (Ferritin),Flourescence Intensity (au) (α-2-macroglobulin),Substance,"loss of fluorescent signal (removal of the phosphate group, detected with anti-phosphotyrosine antibody) [1]"
20,800,FITC-labeled trypsin (enzyme),
,,Leucocyte Antigene Related (LAR) protein tyrosin phosphatase,the LAR-PTPase selectively removes the phosphate group substantially completely from Peptide No. 1
